The values that follow come from PMC5889325 (Molecular cell, 2018).

Data set [1] addresses amino-terminal poly-histidine-tagged Cas4 (Bacillus halodurans type I-C), co-expressed with untagged Cas1 (Bacillus halodurans). Description: negative-stain EM reconstruction.
Data set [2] deals with the molecule itself. Description: negative-stain EM reconstruction.

B1: untagged Cas1 (Bacillus halodurans type I-C), co-expressed with His6-Cas4 (natural protein, UniProt Q9KFX9 1-343, looked up)
chain: MKKLLNTLYVTQPDTYLSLDGDNVVLLKEQEKLGRLPLHNLEAIVGFGYTGASPALMGYCAERNISITFLTKNGRFLARVVGESRGNVVLRKTQYRISENDQESTKIARNFITGKVYNSKWMLERMTREHPLRVNVEQFKATSQLLSVMMQEIRNCDSLESLRGWEGQAAINYNKVFDQMILQQKEEFAFHGRSRRPPKDNVNAMLSFAYTLLANDVAAALETVGLDAYVGFMHQDRPGRASLALDLMEELRGLYADRFVLSLINRKEMTADGFYKKENGAVLMTDEARKTFLKAWQTKKQEKITHPYLGEKMSWGLVPYVQALLLARFLRGDLDEYPPFLWK
In data set [1], B1 showed a stoichiometry N (Cas1 per complex) of 4 and a stoichiometry N (Cas4 per complex) of 2. Also, in data set [2], the binding result is “binds”.
